According to article PMC10647799:

What was measured:
[1] = target: Asterias forbesii ferritin (AfFer) (Asterias forbesii); test: crystal structure; hanging drop vapour diffusion, 20 °C, 12.0 µM ferritin in 5.0 mM Tris-HCl; crystals with body-centered tetragonal (BCT) lattice; subunits in the 24-mer cage and cage to cage contacts
[2] = target: Asterias forbesii ferritin (AfFer) (Asterias forbesii); test: native gel or EMSA; native-PAGE and SDS-PAGE of purified AfFer; subunits to the 24-mer cage

stoichiometry N [1]: 24
stoichiometry N [2]: 24
Substance: Asterias forbesii ferritin (AfFer) (natural protein)
